Experimental data taken from patent CN107042098A.

Columns and labels:
[1] = biological target: Myc-GST融合蛋白 (Myc标签与谷胱甘肽融合的蛋白); experiment: indirect ELISA, Myc-GST coated at 5 μg/mL, HRP anti-His secondary; heat test at 70℃
[2] = biological target: Myc-GST融合蛋白 (Myc标签与谷胱甘肽融合的蛋白); experiment: indirect ELISA, Myc-GST coated at 5 μg/mL, HRP anti-His secondary; heat test at 80℃
[3] = biological target: Myc-GST融合蛋白 (Myc标签与谷胱甘肽融合的蛋白); experiment: indirect ELISA, Myc-GST coated at 5 μg/mL, HRP anti-His secondary; heat test at 90℃

B1: 抗c-Myc标签单域重链抗体 (anti-c-Myc tag single-domain heavy-chain antibody, SEQ ID NO.:1) (VHH, not shown: small tags and cut ends)
VHH: QLQLVESGGGLVQAGGSLRLSCAVSGFTFSANAMSWVRQAPGKGPEWVSSINRGGASAEYADSVKGRFTISRDDAKNTLYLQMNSLKPEDTALYYCARGNYRGSYFNGPRTYWGRGTQVTVSP
With B1 as the binder, how does the OD450 [1] read?
The OD450 was 1.4 OD450.

And the OD450 [2]?
Its OD450 is 1.2 OD450.

What about the OD450 [3] of the same binder?
Its OD450 is 1.1 OD450.
